Data reported in the nanobody polyreactivity screen of Harvey et al. (2022).

assay: yeast display, Sf9 membrane polyspecificity reagent, FACS + sequencing; frameworks hold sequencing errors
Summary of the method: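 Nanobodies came from a synthetic yeast display library in Saccharomyces cerevisiae BJ5465, induced with galactose for 36–48 hours and stained for 1 hour at 4 °C with 10% biotinylated, detergent-solubilized Sf9 membrane reagent. Cells were enriched on streptavidin microbeads and then FACS-sorted, with low and high (top ~1%) gates set on anti-HA fluorescence for expression and streptavidin fluorescence for reagent binding. Each polyreactivity label reflects the gate a clone came from. Genes were amplified by colony PCR, sequenced by MiSeq 2 × 250 and filtered by CDR length.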

Q: With “QVQLVESGGGLVHAGGSLRLSCAASGSTFGYYAMGWYRQAPGTERELVADINWNGGSTNYADSVKGRFTISRDTEKKTVYLQMNSLKPEDTAVYFCAKGLRPYRFYYWGQGTQVTVSS” as the sequence, how does the “polyreactivity (PSR sort gate)” value read?
A: high polyreactivity

Q: Which “polyreactivity (PSR sort gate)” value does the source give for “QVQLVESGGGLVHAGGSLRLSCAASGSTFIYNAMGWDRQAPGKERELVAAITWNGGSTYYADSVKGRFTLSRDIAKNTVYLQMISLNPEDTAVYYCAVDKGSQPHYDYWGQVTQVTVSS” here?
A: low polyreactivity

Q: Which “polyreactivity (PSR sort gate)” value does the source give for “QVQLVESGGGLVHAGGSLRLSCAASGSTFSRNTMGWYRQAPGKERELVAAITKSAVSTYNADSVKGRFTISRDNAKNTVYLQMNSLKPEDTAVYYCAKVYRTSTSKAYDYWGQGTQVTVSS” here?
A: high polyreactivity

Q: For “QVQLVESGGGLVHAGGSLRLSCAASGSTFSYNAMGWYRQAHGKERELVAAITSSGSSTYYADSVKGRFTISRYNAKNTVYLQMNSLKPEDTAVYYCKAEVLFVAGQVQRNSGDYWGQGTQVSVSS”, which “polyreactivity (PSR sort gate)” value is on record?
A: low polyreactivity

Q: With “QVQLVESGGGLVHAGGSLRLSCAASGSTFTPNAMGWYRQAPRKERDLVAAIRGLNGRTYYADSVKGRITISRDNAKNTVYLQMNSLKPEDTAVYYCAAGGYSNYFAWHDYWGQCTQVTVSS” as the sequence, how does the “polyreactivity (PSR sort gate)” value read?
A: low polyreactivity

Q: With “QVQLVESGGGLVHAGGSLRLSCAASGSTFYENAMGWYRQAPGKERELVAAITWSGGRTYYADSVKGRFTISRDNAKNTVYLQMNSLKPEDTAVYYCAAGLFVGFDYWGQGTQVTVSS” as the sequence, how does the “polyreactivity (PSR sort gate)” value read?
A: high polyreactivity

Q: With “QVQLVESGGGLVHAGGSLRLSCAASGSTFYSNTMGWYRQAPGKERELVAAIDTSGDSTNYADSVKGRFTISRDNAKNTVYLQMNSLKPEDTAVYYCNRRVSDRAFPFNYWGQGTQVTVSS” as the sequence, how does the “polyreactivity (PSR sort gate)” value read?
A: low polyreactivity

Q: For “QVQLVESGGGLVHAGGSLRLSCAASGSTLKYYAMGWYRQAPGKERELVAAITSGSSTYYADSVKGRFTISRDNAKNTVYLQMNSLKPEDTAVYYCAADYYTGYGRYYSTRFYYWGQGTQVTVSS”, which “polyreactivity (PSR sort gate)” value is on record?
A: high polyreactivity

Q: Which “polyreactivity (PSR sort gate)” value does the source give for “QVQLVESGGGLVHAGGSLRLSCAASGSTYIFYAMGWYRQAPGKERELVPAITGGGSTYYADSVKGRFTISRDNAKNTVYLQMNSLKPEDTAVFYCARAEPYYSKSFSLGGYGYWGQGTKVTVSS” here?
A: low polyreactivity

Q: With “QVQLVESGGGLVHAGGSLRLSCAAYGFIFRYYAMGRYRQAPGKEMELVATISSGGRTYYADSVKGRFTISRDNAKNTVYLQMNSLKPEDTAVYYCAKDYSWASYNHDYWGQGTQVTVSS” as the sequence, how does the “polyreactivity (PSR sort gate)” value read?
A: low polyreactivity

Q: For “QVQLVESGGGLVHAGGSLRLSCAAYGSTFVRNAMGCYRQAPGKERELVAAITSRGGSTYYADSVKGRFTISRDNAKNTVYLQMNSLKPEDTAVYYCAARFGVKRGQYDYWGQGTQVTVSS”, which “polyreactivity (PSR sort gate)” value is on record?
A: high polyreactivity

Q: For “QVQLVESGGGLVHAGGSLRLSCASSGRIFQYNTMGWYRQAPGKERELVAGISSGGSTNYADSVKGRFTISRDNAKNTVYLQMNSLKPEDTAVYYCAARAKRYNVRFDYWGQGTQVTVSS”, which “polyreactivity (PSR sort gate)” value is on record?
A: high polyreactivity

Q: With “QVQLVESGGGLVHAGGSLRLSCASSGSTFRPYAMGCYRQAPGKERELVAAIRKIGGRTYYADSVKGRFTISRDNANNTVYLQMNSLKPEDTAVYNCNKRIGGGVHAYNYWGQGTQVSVSS” as the sequence, how does the “polyreactivity (PSR sort gate)” value read?
A: low polyreactivity

Q: Which “polyreactivity (PSR sort gate)” value does the source give for “QVQLVESGGGLVHAGGSLRLSCATSGRTFKYNAMGWYRQAPGKEREFVAAISSRGGSTTYYADSVTGRFTISRDNAKNTVYLQMKSLKPEDTAVYYCADRTPPPASRSRVYYWGQCTQVTVSS” here?
A: high polyreactivity

Q: With “QVQLVESGGGLVHAGGSLRLSCDASGLKFRAYDMGRYRQAPGKERELVAAITSSSGSTYYADSVKGRFTISRDNAKNTVYLQMNSLKPEDTSVYYCNAYSTFGWYDYWGQGTQVTVSS” as the sequence, how does the “polyreactivity (PSR sort gate)” value read?
A: low polyreactivity

Q: For “QVQLVESGGGLVHAGGSLRLSCSASGIIFYRYAMGWYRQAPGKERELVAAITWSGVSTSYADSVKGRFTISRDNAKNTVYLKMNSLKPEDTAVYYCNIDPGTLFGDMDSWGQGNQVTVSS”, which “polyreactivity (PSR sort gate)” value is on record?
A: low polyreactivity

Q: With “QVQLVESGGGLVHAGGSLRLSCSASGRTFRHYAMGWYRQAPGKEREMVAVISWRGTGTYYADSVKGRFTISRDNAKNTVYLQMNSLKPEDTAVYYCATVWGLGYRMNYWGQGTQVTVSS” as the sequence, how does the “polyreactivity (PSR sort gate)” value read?
A: high polyreactivity

Q: Which “polyreactivity (PSR sort gate)” value does the source give for “QVQLVESGGGLVHAGGSLRLSCSASGSILKSYAMGWYRQAPGKERDLVAAITYRDGSTYYADSVKGRFTISRDTAKNTVYLQMISLKPEDTAVYYCASEPYWWNVFYPGYNYWGQGNQVTVSS” here?
A: high polyreactivity

Q: With “QVQLVESGGGLVHAGGSLSLICAASGITFDVNAMGWYRQAPGKERELVAAITAGGNTYYADSVKGRFTISRDNAKNTVYLQMNSLKPEDTAVYYCAAVSTSLYWAGYDYWGQGTKVTVSS” as the sequence, how does the “polyreactivity (PSR sort gate)” value read?
A: low polyreactivity

Q: Which “polyreactivity (PSR sort gate)” value does the source give for “QVQLVESGGGLVHAGRSLRLSCAASGFIFVRNAMGWYRQAPGKERELVAAITRSGGSTSYADSVKGRFTISRDNEKNTVYLQMNSLKPEDTAVYYCAAQYGYWGQGTQVTVSS” here?
A: high polyreactivity

Q: With “QVQLVESGGGLVHEGGSLRLSCAASGRLFKSYAMGWYRQAPVKERELVAAISRSGGRTYYADSVKGRFTISRDNAKNTVYLQMNSLKPEDTAVYYCAATTFVAPYWGQGTQVTVSS” as the sequence, how does the “polyreactivity (PSR sort gate)” value read?
A: low polyreactivity

Q: With “QVQLVESGGGLVKAGCSLRLSCAASGFTFGRYAMGWYRQAPGKERELVAAISRTGGRTYYADSVKGRFTISRDNAKNTVYLQMNSLKPEDTAVYYCAADKGGTYFNGDSWGQGTQVTVSS” as the sequence, how does the “polyreactivity (PSR sort gate)” value read?
A: high polyreactivity

Q: For “QVQLVESGGGLVKAGGILRLSCAASGSIFGRYVMGWYRPAPGKEREVVAAINRSGGRTYYADSVKGRFSISRDNAKYTVYLQMNSLKPEDTAVYYCATYTGSSASKEVPYDYWGQGTQVTVSS”, which “polyreactivity (PSR sort gate)” value is on record?
A: high polyreactivity

Q: Which “polyreactivity (PSR sort gate)” value does the source give for “QVQLVESGGGLVKAGGSHRLSLASYGTFRYYAMGWYRQAPGKERELDAGISRSGGSTYYEDSVKGRFTISRDNAKNTVYLQMNSQNPEDTEVYDCAAGNYYYWYKTKYYHYDYWGQGTQVTVSS” here?
A: high polyreactivity

Q: Which “polyreactivity (PSR sort gate)” value does the source give for “QVQLVESGGGLVKAGGSLGLSCAASGRTLRYYAMGWYRQAPRKERELVASISIGGSTYYADSVKGRFTISRDNAKNTVYLQMNSLKPEDTAVYYCATDYSNSGYGYWGQCTQVTVSS” here?
A: low polyreactivity

Q: Which “polyreactivity (PSR sort gate)” value does the source give for “QVQLVESGGGLVKAGGSLRFSCAASVITFVWYAMGWYRQAPGKERDLVASIDSSVSTNYADSVKGRFTISRDNEKNTVYFQMNSLKPEDTAVYYCAAYFFFGQVGGMEYWGQGTQVTVSS” here?
A: low polyreactivity

Q: For “QVQLVESGGGLVKAGGSLRLICAASGFTFRAYAMGWYRQAPGTERELVAAINRRGGRTYYADSVKGRFTISRDNAKNTVYLQMNSLKPEDTAVYYCAAVKSGPSKGVGPPATAYDYWGQGTQVTVSS”, which “polyreactivity (PSR sort gate)” value is on record?
A: high polyreactivity

Q: With “QVQLVESGGGLVKAGGSLRLSCAASAWYAMGWYRQAPGKEREFVAAITFSGSSTYYADSVKGRFTISRDNAKNTVYLQMNSLKPEVTAVYYCNADWWEWGQGTQVTVSS” as the sequence, how does the “polyreactivity (PSR sort gate)” value read?
A: low polyreactivity

Q: With “QVQLVESGGGLVKAGGSLRLSCAASGFICVDYDRGGSRQAPGQERELVAAINWSGGSTDYADSVKGRFTISRDNAKNTVYLQMNSLKPEDTAVYYCGAEGQDCRFYWGLGTQVTVSS” as the sequence, how does the “polyreactivity (PSR sort gate)” value read?
A: low polyreactivity

Q: Which “polyreactivity (PSR sort gate)” value does the source give for “QVQLVESGGGLVKAGGSLRLSCAASGFTFLNNTMGWYRQAPGKERELVAGITSSGDRTYYADSVKGRFTISRDNAKNTVYLQMNSLKPEDTAVYYCNADSSYPPGYDYWGQGTQVTVSS” here?
A: low polyreactivity

Q: Which “polyreactivity (PSR sort gate)” value does the source give for “QVQLVESGGGLVKAGGSLRLSCAASGFTFTRYAMGWYRQAPGKDRELVAAISSGSRSYYADSVKGRFTISRDNANNTVYLQMNSLKPEDTAVYNCASPDYTYYGHYDSWGQGTQVTVSS” here?
A: high polyreactivity

Q: With “QVQLVESGGGLVKAGGSLRLSCAASGITFHDYPMGWYRQAPGKERELVAAISSGGSTNYADSVKGRFTISRDNEKNTVYLQLNSLKPEDTAVYYCAAKYTDIVARLSLYYYWGQGTQVTVSS” as the sequence, how does the “polyreactivity (PSR sort gate)” value read?
A: low polyreactivity
